This is an account of results in patent US20180079802A1.

Where only a bound is given, the exact number is not on record here.

For assay [1], the target named is Recombinant CHIKV E2 ectodomain protein (corresponding to the CHIKV-LR2006 strain) (Chikungunya virus strain LR2006). In words: BLI competition, E2 ectodomain on anti-Penta-His tip; first mAb 1O6.
For assay [2] the target is unchanged. In words: BLI competition, E2 ectodomain on anti-Penta-His tip; first mAb 5M16.
Assay [3] has the same target. In words: BLI competition, E2 ectodomain on anti-Penta-His tip; first mAb CHK-84 (f1).
Assay [4] shares this target. In words: BLI competition, E2 ectodomain on anti-Penta-His tip; first mAb 5O14.
Assay [5] shares this target. Description: BLI competition, E2 ectodomain on anti-Penta-His tip; first mAb 9D14.
Assay [6] shares this target. In words: BLI competition, E2 ectodomain on anti-Penta-His tip; first mAb CHK-265 (f3).
Assay [7] has the same target. Description: BLI competition, E2 ectodomain on anti-Penta-His tip; first mAb 3A2.
Assay [8] shares this target. Description: BLI competition, E2 ectodomain on anti-Penta-His tip; first mAb 4B8.
Assay [9] shares this target. Description: BLI competition, E2 ectodomain on anti-Penta-His tip; first mAb 5F10 (r1).
The target is the same in assay [10]. Description: BLI competition, E2 ectodomain on anti-Penta-His tip; first mAb 5N23.
For assay [11] the target is unchanged. In words: BLI competition, E2 ectodomain on anti-Penta-His tip; first mAb 1H12.
Assay [12] has the same target. In words: BLI competition, E2 ectodomain on anti-Penta-His tip; first mAb CHK-88 (f4).
Assay [13] shares this target. Description: BLI competition, E2 ectodomain on anti-Penta-His tip; first mAb CHK-141 (f2).
Assay [14] shares this target. In words: ELISA, E2 ectodomain coated. In general terms: ELISA stands for enzyme-linked immunosorbent assay.

Consider CHK-265 (antibody), for which the percent binding of competing mAb in presence of first mAb came out at 85% in assay [1]; 84% in [2]; 92% in [3]; 85% in assay [4]; 105% in [5]; 2% in assay [6]. For the same substance, the percent binding of competing mAb in presence of first mAb was 95% in assay [7]; 92% in assay [8]; -3% in [9]; 98% in assay [10]; 52% in [11]; 3% in assay [12]. Besides, the percent binding of competing mAb in presence of first mAb in assay [13] was found to be 86%.
With murine CHK-152 (antibody), the OD in [14] was less than 0.1 od.
